The text below walks through data of patent US20060286112A1 (published 2006).

The target in test [1] is T1, human VLA-1 (alpha 1/beta 1, CD49a/CD29) on IL-2 stimulated human PBMC / T cells (human, UniProt P56199 29-1179; P05556 21-798). The experiment in a line: cell-based or functional assay.
For test [2], the target named is T1, human VLA-1 (alpha 1/beta 1, …). As to the kind of experiment: cell-based or functional assay. The source holds these as a separate data set.
Test [3] deals with T2, mouse VLA-1 on mouse splenocytes (mouse, UniProt Q3V3R4 29-1179; P09055 21-798).
T2 construct: whole, on cells; native protein on primary cells
The experiment in a line: FACS on mouse splenocytes.

For test [4], the target named is T1, human VLA-1 (alpha 1/beta 1, …). As to the kind of experiment: cell-based or functional assay. The source holds these as a separate data set.
Test [5] has as its target T3, human VLA-1 α1 subunit (CD49a), full-length, on transfected CHO cells (human, UniProt P56199 29-1179).
T3 construct: whole, on cells; also called CHO-α1; CHO-VLA-1
The experiment in a line: FACS on CHO-α1 cells.

Test [6] deals with T1, human VLA-1 (alpha 1/beta 1, …). The experiment in a line: FACS on IL-2 stimulated human PBMC.
Test [7] shares this target. The experiment in a line: cell-based or functional assay. This is another data set of the same source.
Test [8] has as its target T3, human VLA-1 α1 subunit (CD49a), …. The experiment in a line: cell-based or functional assay.
In test [9] the target is T4, human CD49a I domain E66A (human, UniProt P56199 151-364, E66A).
T4 construct: domain: I domain; not shown: myc and His tags
The experiment in a line: ELISA on secreted mutant I domain.

Test [10] concerns the target T5, human CD49a I domain E48K (human, UniProt P56199 151-364, E48K).
T5 construct: domain: I domain; not shown: myc and His tags
The experiment in a line: ELISA on secreted mutant I domain. Background: ELISA stands for enzyme-linked immunosorbent assay.

For test [11], the target named is T6, human CD49a I domain K142Q (human, UniProt P56199 151-364, K142Q).
T6 construct: domain: I domain; text prints KI42Q once; not shown: myc and His tags
The experiment in a line: ELISA on secreted mutant I domain.

Test [12] addresses T7, human CD49a I domain I11F (human, UniProt P56199 151-364, I11F).
T7 construct: domain: I domain; not shown: myc and His tags
As to the kind of experiment: ELISA on secreted mutant I domain.

Test [13] concerns the target T8, human CD49a I domain T204A (human, UniProt P56199 151-364, T204A).
T8 construct: domain: I domain; not shown: myc and His tags
The experiment in a line: ELISA on secreted mutant I domain.

Test [14] addresses T9, human CD49a I domain S162H (human, UniProt P56199 151-364, S162H).
T9 construct: domain: I domain; not shown: myc and His tags
The experiment in a line: ELISA on secreted mutant I domain.

The target in test [15] is T10, human CD49a I domain with residues 91-96 VQRGGR replaced by mouse GRRGGL (human, UniProt P56199 151-364, V91G; Q92R; R96L).
T10 construct: domain: I domain; also called V91G, Q92R, R96L; not shown: myc and His tags
As to the kind of experiment: ELISA on secreted mutant I domain.

Test [16] addresses T11, human CD49a I domain K88N (human, UniProt P56199 151-364, K88N).
T11 construct: domain: I domain; not shown: myc and His tags
The experiment in a line: ELISA on secreted mutant I domain.

Test [17] has as its target T3, human VLA-1 α1 subunit (CD49a), …. As to the kind of experiment: cell-based or functional assay. The source holds these as a separate data set.

B1: 1.7 (antibody, V domains shown)
VH: QVQLQESGPGLVKPSQTLSLTCTVSGGSISRGNYYWSWIRQHPGKGLEWIGYIFYSGSTYYNPSLKSRVTISVDTSKNQFSLKLSSVTAADTAVYYCARDGYGMDVWGQGTTVTVSS
VL: EIVLTQSPGTLSLSPGERATLSCRASQSVSSSYLVWYQQKPGQAPRLLLYDASSRATGIPDRFSGSGSGTDFTLTISRLEPEDFAVYYCQQYGNSPLTFGGGTKVEIK
notes: human IgG2 or IgG4; also called antibody 1.7
For B1, in [1], the “% adhesion of IL-2 activated T cells to collagen IV vs no antibody, 10 µg/ml, +PMA” value turned out to be 33.8% and the “% adhesion of IL-2 activated T cells to collagen IV vs no antibody, 10 µg/ml, -PMA” value was determined as 57%. In [2], the “% adhesion of T cells to collagen IV vs no antibody, 0.5 nM mAb, 10 ng/ml PMA” value came to 74.5% and the “% adhesion of T cells to collagen IV vs no antibody, 5 nM mAb, 10 ng/ml PMA” value is 44.1%. Moreover, in test [3], the binding result is “binds”. Further, the “% adhesion of T cells to collagen IV vs no antibody, 0.5 nM mAb, no PMA” value in test [4] was 36.9%.

B2: 7.38 (antibody, V domains shown)
VH: QVQLQESGPGLVKPSETLSLTCTVSGGSFSSYYWSWIRQPAGKGLEWIGRIYTSGSTYYNPSLKSRVTMSVDTSKNQFSLKLNSVTAADTAVYYCAREGYDFWNDYYNYYYGMDVWGQGTTVTVS
VL: EIVLTQSPGTLSLSPGERATLSCRASQSVSSRYLAWYQQKPGQAPRLLIYGASSRATGIPDRFSGSGSGTDFTLTISRLEPEDFAVYYCQQYGSAFTFGGGTKVEIK
notes: human IgG2 or IgG4
Turning to B2, the binding result in [5] was “binds”.

B3: 3.2 (antibody, V domains shown)
VH: QVQLVESGGGVVQPGRSLRLSCAASGFTFSSYGIHWVRQAPGKGLEWVAVIWYDGSDIYYADSVKGRFTISRDNSKNTLYLQMNSLRAEDTALYYCARESSGWTFDYWGQGTLVTVSS
VL: QSALTQPASVSGSPGQSITISCTGTSSDVGGYNYVSWYQQHPGKAPKLMIYEVSNRPSGISNRFSGSKSGNTASLTISGLQAEDEADYYCSSYTSSSTIIFGGGTKLTVL
notes: human IgG2 or IgG4
With B3, in [6], the binding result was “binds”.

B4: 3.9 (antibody, V domains shown)
VH: QVQLVESGGGVVQPGRSLRLSCAASGFTFSSYGMHWVRQAPGKGLEWVAVIWYDGSNKYYADSVKGRFTISRDNSKNTLYLQMNSLRAEDTAVYYCARDNGAMVRGVIISYYYGMDVWGQGTTVTVSS
VL: SYDLTQPSSVSVSPGQTASIACSGDRLGNKYACWYQQKPGQSPVLVIYKDSKRPSGIPERFSGSNSGNTATLTISGTQAMDEADYYCQAWDSSTVVFGGGTKLTVL
notes: human IgG2 or IgG4
Take B4: the “T cell adhesion to immobilized collagen IV, relative estimated IC50” value in [7] is greater than 5 nM. Moreover, the “IC50, adhesion of CHO-VLA-1 cells to collagen IV” value in test [8] was 0.38 nM. Also, the binding result in test [9] is “binds”; in test [10] it was “no binding”; in [11], “binds”; in test [12], “binds”; in [13], “binds”; in test [14], “binds”. Further, the binding result in [15] and in test [16] was “binds” each time. Moreover, the “% adhesion of IL-2 activated T cells to collagen IV vs no antibody, 10 µg/ml, +PMA” value in test [1] came out at 24.6%. For the same molecule, in test [1], the “% adhesion of IL-2 activated T cells to collagen IV vs no antibody, 10 µg/ml, -PMA” value is 45.8%. In addition, the “% adhesion of T cells to collagen IV vs no antibody, 0.5 nM mAb, 10 ng/ml PMA” value in [2] came to 91.9%. Further, the “% adhesion of T cells to collagen IV vs no antibody, 5 nM mAb, 10 ng/ml PMA” value in [2] was 99.6%. Besides, the “% adhesion of T cells to collagen IV vs no antibody, 0.5 nM mAb, no PMA” value in test [4] was 91.5%. In addition, in test [4], the “% adhesion of T cells to collagen IV vs no antibody, 5 nM mAb, no PMA” value turned out to be 68%. Moreover, the “relative inhibition at an optimal concentration, CHO-VLA-1 adhesion to collagen IV” value in test [17] was greater than 80%.
